Data as given in IntAct's records for PubMed 17474147.

B1: 1-phosphatidylinositol 4,5-bisphosphate phosphodiesterase gamma-1 (Homo sapiens), P19174 (parent)
chain: MAGAASPCANGCGPGAPSDAEVLHLCRSLEVGTVMTLFYSKKSQRPERKTFQVKLETRQITWSRGADKIEGAIDIREIKEIRPGKTSRDFDRYQEDPAFRPDQSHCFVILYGMEFRLKTLSLQATSEDEVNMWIKGLTWLMEDTLQAPTPLQIERWLRKQFYSVDRNREDRISAKDLKNMLSQVNYRVPNMRFLRERLTDLEQRSGDITYGQFAQLYRSLMYSAQKTMDLPFLEASTLRAGERPELCRVSLPEFQQFLLDYQGELWAVDRLQVQEFMLSFLRDPLREIEEPYFFLDEFVTFLFSKENSVWNSQLDAVCPDTMNNPLSHYWISSSHNTYLTGDQFSSESSLEAYARCLRMGCRCIELDCWDGPDGMPVIYHGHTLTTKIKFSDVLHTIKEHAFVASEYPVILSIEDHCSIAQQRNMAQYFKKVLGDTLLTKPVEISADGLPSPNQLKRKILIKHKKLAEGSAYEEVPTSMMYSENDISNSIKNGILYLEDPVNHEWYPHYFVLTSSKIYYSEETSSDQGNEDEEEPKEVSSSTELHSNEKWFHGKLGAGRDGRHIAERLLTEYCIETGAPDGSFLVRESETFVGDYTLSFWRNGKVQHCRIHSRQDAGTPKFFLTDNLVFDSLYDLITHYQQVPLRCNEFEMRLSEPVPQTNAHESKEWYHASLTRAQAEHMLMRVPRDGAFLVRKRNEPNSYAISFRAEGKIKHCRVQQEGQTVMLGNSEFDSLVDLISYYEKHPLYRKMKLRYPINEEALEKIGTAEPDYGALYEGRNPGFYVEANPMPTFKCAVKALFDYKAQREDELTFIKSAIIQNVEKQEGGWWRGDYGGKKQLWFPSNYVEEMVNPVALEPEREHLDENSPLGDLLRGVLDVPACQIAIRPEGKNNRLFVFSISMASVAHWSLDVAADSQEELQDWVKKIREVAQTADARLTEGKIMERRKKIALELSELVVYCRPVPFDEEKIGTERACYRDMSSFPETKAEKYVNKAKGKKFLQYNRLQLSRIYPKGQRLDSSNYDPLPMWICGSQLVALNFQTPDKPMQMNQALFMTGRHCGYVLQPSTMRDEAFDPFDKSSLRGLEPCAISIEVLGARHLPKNGRGIVCPFVEIEVAGAEYDSTKQKTEFVVDNGLNPVWPAKPFHFQISNPEFAFLRFVVYEEDMFSDQNFLAQATFPVKGLKTGYRAVPLKNNYSEDLELASLLIKIDIFPAKENGDLSPFSGTSLRERGSDASGQLFHGRAREGSFESRYQQPFEDFRISQEHLADHFDSRERRAPRRTRVNGDNRL
partner: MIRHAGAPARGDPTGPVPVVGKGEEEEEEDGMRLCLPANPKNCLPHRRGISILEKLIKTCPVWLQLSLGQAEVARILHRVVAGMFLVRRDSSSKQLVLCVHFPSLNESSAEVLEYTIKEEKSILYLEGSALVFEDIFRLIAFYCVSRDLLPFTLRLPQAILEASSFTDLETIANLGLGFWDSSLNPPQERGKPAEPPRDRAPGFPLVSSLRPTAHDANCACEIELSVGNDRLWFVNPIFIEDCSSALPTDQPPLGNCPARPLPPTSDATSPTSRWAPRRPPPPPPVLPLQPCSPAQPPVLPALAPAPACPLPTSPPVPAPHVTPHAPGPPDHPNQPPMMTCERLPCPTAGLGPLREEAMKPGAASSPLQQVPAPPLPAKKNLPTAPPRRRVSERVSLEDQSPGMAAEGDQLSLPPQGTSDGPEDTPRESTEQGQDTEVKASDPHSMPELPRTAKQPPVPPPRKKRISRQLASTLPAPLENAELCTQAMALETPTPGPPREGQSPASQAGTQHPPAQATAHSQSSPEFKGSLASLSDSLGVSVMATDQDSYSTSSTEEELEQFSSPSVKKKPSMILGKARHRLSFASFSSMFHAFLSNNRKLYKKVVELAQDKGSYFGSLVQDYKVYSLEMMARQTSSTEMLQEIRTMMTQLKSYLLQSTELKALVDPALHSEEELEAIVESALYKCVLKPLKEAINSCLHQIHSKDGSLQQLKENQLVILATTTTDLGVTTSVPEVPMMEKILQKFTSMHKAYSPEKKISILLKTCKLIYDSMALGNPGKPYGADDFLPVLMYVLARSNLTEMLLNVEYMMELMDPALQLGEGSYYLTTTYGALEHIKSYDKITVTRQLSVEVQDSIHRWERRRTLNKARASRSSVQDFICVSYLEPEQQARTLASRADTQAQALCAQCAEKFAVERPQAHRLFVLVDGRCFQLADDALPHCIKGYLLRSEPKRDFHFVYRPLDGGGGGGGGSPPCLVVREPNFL
B2: 1-phosphatidylinositol 4,5-bisphosphate phosphodiesterase gamma-1 (Homo sapiens), P19174 (parent)
chain: B1 chain

Assays:
rin3_human RIN3, Q8TB24 = variants of: B1; settings: with rin3_human RIN3, Q8TB24
[1] = variants of: B2; settings: with asap2_human ASAP2, O43150
abl2_human ABL2, P42684 = variants of: B2; settings: with abl2_human ABL2, P42684
[2] = variants of: B2; settings: with shan2_human SHANK2, Q9UPX8
[3] = variants of: B2; settings: with m4k1_human MAP4K1, Q92918
Chain of m4k1_human MAP4K1, Q92918 (Q92918 whole entry, looked up): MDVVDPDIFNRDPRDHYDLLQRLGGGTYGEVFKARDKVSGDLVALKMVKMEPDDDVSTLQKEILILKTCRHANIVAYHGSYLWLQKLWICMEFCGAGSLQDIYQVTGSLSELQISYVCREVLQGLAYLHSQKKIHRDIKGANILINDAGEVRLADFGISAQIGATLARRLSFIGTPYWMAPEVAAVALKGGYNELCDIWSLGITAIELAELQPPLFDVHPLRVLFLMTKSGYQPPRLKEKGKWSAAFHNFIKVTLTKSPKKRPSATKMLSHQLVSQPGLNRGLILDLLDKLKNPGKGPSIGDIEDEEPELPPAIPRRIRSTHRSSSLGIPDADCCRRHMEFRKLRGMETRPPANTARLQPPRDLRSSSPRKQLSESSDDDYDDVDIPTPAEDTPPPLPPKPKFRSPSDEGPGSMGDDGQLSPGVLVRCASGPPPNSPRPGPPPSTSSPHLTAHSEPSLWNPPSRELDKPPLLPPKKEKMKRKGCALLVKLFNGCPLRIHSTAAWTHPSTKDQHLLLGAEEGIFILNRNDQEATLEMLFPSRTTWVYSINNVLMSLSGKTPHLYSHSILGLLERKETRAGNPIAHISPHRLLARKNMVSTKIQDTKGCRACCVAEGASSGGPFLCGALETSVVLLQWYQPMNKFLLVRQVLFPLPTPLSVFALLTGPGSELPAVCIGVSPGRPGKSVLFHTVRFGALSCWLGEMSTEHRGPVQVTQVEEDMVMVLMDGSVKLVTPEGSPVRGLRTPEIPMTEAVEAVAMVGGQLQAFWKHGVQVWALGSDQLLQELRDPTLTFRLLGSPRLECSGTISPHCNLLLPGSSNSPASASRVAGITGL

Chain of shan2_human SHANK2, Q9UPX8 (Q9UPX8 whole entry): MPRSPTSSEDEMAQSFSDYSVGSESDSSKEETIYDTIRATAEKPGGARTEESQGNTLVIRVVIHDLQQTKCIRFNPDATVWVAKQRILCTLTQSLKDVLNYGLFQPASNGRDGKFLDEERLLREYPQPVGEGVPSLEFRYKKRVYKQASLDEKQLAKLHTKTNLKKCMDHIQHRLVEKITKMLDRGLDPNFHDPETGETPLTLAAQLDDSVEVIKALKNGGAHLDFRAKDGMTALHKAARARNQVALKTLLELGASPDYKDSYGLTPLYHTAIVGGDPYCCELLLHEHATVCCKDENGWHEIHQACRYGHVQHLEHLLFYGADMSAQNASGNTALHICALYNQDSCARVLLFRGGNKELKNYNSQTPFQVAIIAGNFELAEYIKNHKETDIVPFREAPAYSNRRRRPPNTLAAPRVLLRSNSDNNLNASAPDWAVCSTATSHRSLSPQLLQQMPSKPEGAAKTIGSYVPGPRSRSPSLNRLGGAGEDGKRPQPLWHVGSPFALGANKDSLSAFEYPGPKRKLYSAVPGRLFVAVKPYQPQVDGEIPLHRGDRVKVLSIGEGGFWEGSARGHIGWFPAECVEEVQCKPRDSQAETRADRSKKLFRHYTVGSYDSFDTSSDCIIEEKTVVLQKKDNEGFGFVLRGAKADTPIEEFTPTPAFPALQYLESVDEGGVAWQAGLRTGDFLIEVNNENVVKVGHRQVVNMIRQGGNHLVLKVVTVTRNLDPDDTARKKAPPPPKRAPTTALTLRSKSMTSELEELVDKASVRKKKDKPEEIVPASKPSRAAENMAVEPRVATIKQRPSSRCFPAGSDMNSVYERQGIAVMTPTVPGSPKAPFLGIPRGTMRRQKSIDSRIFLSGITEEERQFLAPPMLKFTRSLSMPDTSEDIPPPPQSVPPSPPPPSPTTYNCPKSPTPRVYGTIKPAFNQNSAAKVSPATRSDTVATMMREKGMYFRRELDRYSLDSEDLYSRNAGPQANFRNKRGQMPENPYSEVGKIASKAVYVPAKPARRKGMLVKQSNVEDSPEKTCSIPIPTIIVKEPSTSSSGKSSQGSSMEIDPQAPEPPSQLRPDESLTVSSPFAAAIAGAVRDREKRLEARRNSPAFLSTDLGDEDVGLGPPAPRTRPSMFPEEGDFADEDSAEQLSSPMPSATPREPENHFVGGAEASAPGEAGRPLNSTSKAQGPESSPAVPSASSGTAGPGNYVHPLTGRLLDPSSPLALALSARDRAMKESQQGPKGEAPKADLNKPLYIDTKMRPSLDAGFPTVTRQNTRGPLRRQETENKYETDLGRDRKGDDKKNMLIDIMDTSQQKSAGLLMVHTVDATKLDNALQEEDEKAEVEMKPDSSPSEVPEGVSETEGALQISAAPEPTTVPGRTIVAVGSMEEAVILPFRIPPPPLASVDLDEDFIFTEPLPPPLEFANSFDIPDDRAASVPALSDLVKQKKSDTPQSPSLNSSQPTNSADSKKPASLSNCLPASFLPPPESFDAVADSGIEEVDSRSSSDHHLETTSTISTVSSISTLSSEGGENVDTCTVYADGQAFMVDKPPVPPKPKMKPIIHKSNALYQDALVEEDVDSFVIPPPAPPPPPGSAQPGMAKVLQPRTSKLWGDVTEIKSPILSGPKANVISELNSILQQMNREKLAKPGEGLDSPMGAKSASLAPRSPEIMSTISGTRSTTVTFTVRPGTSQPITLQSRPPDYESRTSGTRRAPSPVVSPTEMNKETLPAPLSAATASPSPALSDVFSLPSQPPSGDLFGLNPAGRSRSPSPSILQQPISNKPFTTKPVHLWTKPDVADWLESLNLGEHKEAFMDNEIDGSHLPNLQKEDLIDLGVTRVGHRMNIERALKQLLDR
Chain of asap2_human ASAP2, O43150 (O43150 whole entry): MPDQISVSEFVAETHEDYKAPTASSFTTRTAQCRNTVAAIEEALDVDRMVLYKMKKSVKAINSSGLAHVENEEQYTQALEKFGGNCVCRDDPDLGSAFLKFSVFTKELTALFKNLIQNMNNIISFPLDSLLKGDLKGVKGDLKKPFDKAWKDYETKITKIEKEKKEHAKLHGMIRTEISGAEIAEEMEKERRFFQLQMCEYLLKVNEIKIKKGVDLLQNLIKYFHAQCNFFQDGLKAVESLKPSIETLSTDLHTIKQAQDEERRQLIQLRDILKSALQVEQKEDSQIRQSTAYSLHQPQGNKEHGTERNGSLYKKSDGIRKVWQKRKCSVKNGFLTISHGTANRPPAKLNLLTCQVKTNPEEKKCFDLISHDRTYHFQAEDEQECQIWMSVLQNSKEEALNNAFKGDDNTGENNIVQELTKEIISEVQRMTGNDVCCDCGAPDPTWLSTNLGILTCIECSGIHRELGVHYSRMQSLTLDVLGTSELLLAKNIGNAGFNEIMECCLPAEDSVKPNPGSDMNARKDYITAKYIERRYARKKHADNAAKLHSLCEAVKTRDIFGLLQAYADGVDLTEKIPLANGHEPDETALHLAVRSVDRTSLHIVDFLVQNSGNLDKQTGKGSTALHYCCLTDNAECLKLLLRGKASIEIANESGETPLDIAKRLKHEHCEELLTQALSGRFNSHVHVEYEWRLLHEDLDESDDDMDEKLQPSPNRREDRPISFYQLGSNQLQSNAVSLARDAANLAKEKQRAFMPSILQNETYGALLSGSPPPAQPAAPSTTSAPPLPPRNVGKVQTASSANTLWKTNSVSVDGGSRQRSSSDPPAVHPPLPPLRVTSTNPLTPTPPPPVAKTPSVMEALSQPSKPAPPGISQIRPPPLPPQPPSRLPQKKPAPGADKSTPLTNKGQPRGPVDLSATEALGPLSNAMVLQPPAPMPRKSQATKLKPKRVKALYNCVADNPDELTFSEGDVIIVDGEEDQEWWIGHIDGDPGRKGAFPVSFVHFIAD
Chain of abl2_human ABL2, P42684 (P42684 whole entry): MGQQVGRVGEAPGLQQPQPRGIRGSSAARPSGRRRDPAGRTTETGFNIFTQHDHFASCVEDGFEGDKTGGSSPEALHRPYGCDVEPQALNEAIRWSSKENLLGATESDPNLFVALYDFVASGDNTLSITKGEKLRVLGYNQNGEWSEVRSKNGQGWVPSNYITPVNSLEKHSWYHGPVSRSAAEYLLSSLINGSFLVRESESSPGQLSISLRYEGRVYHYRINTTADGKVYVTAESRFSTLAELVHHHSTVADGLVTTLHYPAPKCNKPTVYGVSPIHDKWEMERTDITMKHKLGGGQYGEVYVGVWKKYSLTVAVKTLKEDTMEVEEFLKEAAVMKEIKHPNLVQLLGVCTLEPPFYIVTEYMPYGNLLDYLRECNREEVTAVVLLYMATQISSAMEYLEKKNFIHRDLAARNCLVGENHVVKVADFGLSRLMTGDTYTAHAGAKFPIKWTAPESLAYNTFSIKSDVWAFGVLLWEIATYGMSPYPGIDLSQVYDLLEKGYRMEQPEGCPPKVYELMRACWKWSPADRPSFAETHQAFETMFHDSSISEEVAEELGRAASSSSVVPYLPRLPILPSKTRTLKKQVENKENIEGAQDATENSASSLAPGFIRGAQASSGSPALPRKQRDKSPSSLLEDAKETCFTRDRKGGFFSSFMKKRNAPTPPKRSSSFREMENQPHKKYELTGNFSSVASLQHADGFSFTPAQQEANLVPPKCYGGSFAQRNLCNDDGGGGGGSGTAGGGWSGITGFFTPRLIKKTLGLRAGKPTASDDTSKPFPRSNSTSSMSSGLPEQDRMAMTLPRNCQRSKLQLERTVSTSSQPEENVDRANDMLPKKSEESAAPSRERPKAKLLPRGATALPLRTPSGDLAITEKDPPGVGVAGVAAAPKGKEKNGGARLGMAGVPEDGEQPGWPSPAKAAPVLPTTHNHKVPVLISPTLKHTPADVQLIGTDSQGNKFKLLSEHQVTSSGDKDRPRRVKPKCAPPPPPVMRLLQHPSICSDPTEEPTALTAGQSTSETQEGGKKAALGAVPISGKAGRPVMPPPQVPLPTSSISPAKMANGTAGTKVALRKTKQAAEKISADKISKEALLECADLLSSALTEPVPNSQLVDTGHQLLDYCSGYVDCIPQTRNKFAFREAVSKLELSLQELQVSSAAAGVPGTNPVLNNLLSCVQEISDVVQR

effect of a mutation on the interaction (rin3_human RIN3, Q8TB24) | effect of a mutation on the interaction [1] | effect of a mutation on the interaction (abl2_human ABL2, P42684) | effect of a mutation on the interaction [2] | effect of a mutation on the interaction [3] | Variant
disrupting interaction | – | – | – | – | W828A
– | disrupting interaction | disrupting interaction | disrupting interaction | disrupting interaction | W828A
